From patent US20250346668A1 (GENOR BIOPHARMA, published 2025)

Experiments:
[1] = biological target: T1, human CD3e/g antigen (ACRO, catalog number CDG-H52W5) (human, UniProt P07766 23-126; P09693 23-116); assay: SPR (Biacore 8K), antibody captured via anti-human Fc
T1 construct: Bought reagent used as the Biacore analyte; also called hCD3e/g
Method in brief: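 Anti-human IgG (Fc) antibody amine-coupled on CM5 chip captures CD3 antibodies; antigen injected at a concentration series. Association and dissociation curves fitted kinetically to give equilibrium dissociation constant.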

CD3 on Jurkat cells [2] = biological target: T2, CD3 on Jurkat cells (human); assay: FACS on Jurkat cells, Alexa 488 secondary antibody, MFI [d]
T2 construct: native, on the surface of Jurkat cells; The sheets print only 'Jurkat'; also called human CD3; TCR/CD3 complex on the human T cell line Jurkat
Procedure: (§1) Jurkat cells were amplificatorily cultured to 3×10⁶/ml in a T-175 cell culture flask, the culture medium was removed by centrifugation, and the cells were washed twice with PBS buffer (purchased from Invitrogen). After cell counting, the cells were diluted to 2×10⁶ cells/ml with PBS buffer, added with 1% BSA blocking solution, where the percentage was a mass percentage, incubated on ice for 30 minutes, and then washed twice with PBS buffer by centrifugation. The collected cells were suspended to 2×10⁶ cells/mL with FACS buffer (PBS+1% BSA, where the percentage was a mass percentage), and added to a 96-well FACS reaction plate at 100 μl per well, and samples of the purified CD3 antibodies obtained in Example 4 to be tested were added at 100 μl per well, and incubated at 4° C. for 2 hours. The plate was washed twice with FACS buffer by centrifugation, added with 100 μl per well of fluorescent (Alexa 488) labeled secondary antibody (purchased from Jackson), and incubated at 4° C. for 1 hour. After washing 3 times by centrifugation with FACS buffer, the cells were suspended with 100 μl of FACS buffer, and detected and analyzed using BD FACS LSRFortessa (purchased from BD). The results are shown in FIG. 5, where the IgG control is human IgG1 (hIgG).

CD3 on Jurkat cells [3] = biological target: T2, CD3 on Jurkat cells; assay: FACS on Jurkat cells, Alexa 488 secondary antibody, MFI [c]
Procedure: as §1

CD3 on Jurkat cells [4] = biological target: T2, CD3 on Jurkat cells; assay: FACS on Jurkat cells, Alexa 488 secondary antibody, MFI [b]
Procedure: as §1

CD3 on Jurkat cells [5] = biological target: T2, CD3 on Jurkat cells; assay: FACS on Jurkat cells, Alexa 488 secondary antibody, MFI [a]
Procedure: as §1

B1: CAb008 (antibody, V domains shown)
VH: QVQLQQSGAELARPGASVKMSCKTSGYTFTDYTVNWVKQRPGQGLEWIGYINPFNSYTKYNQKFKDKATLTADKSSSTAYMQLSSLTSEDSAVYFCANSVSTYWGQGTTLTVSS
VL: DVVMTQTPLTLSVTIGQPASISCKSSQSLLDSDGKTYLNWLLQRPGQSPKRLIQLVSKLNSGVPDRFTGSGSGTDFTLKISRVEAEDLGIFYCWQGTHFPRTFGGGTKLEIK
notes: Chimeric: mouse variable regions linked to human light and heavy constant regions; constant regions not specified
[1]
  Kd: 21.2 nM
  koff: 0.00372 s⁻¹
  kon: 176000 M⁻¹ s⁻¹
CD3 on Jurkat cells [2]
  EC50 (read off the curve): ~3 nM

B2: hAb008-26 (antibody, V domains shown)
VH: QVQLVQSGAEVKKPGASVKVSCKASGYTFTDYTVNWVRQAPGQRLEWIGYINPFNSYTKYNQKFKDRATITADTSASTAYMELSSLRSEDTAVYFCANSVSTYWGQGTTVTVSS
VL: DVVMTQSPLSLPVTLGQPASISCKSSQSLLDSDGKTYLNWLQQRPGQSPRRLIQLVSKLNSGVPDRFSGSGSGTDFTLKISRVEAEDVGVFYCWQGTHFPRTFGGGTKLEIK
notes: Humanized; constant regions not specified
[1]
  Kd: 18.1 nM
  koff: 0.00482 s⁻¹
  kon: 266000 M⁻¹ s⁻¹
CD3 on Jurkat cells [3]
  EC50 (read off the curve): ~2 nM

B3: CAb007 (antibody, V domains shown)
VH: QVQLQQSGPELVKPGASVKISCKASGSTFTDNYIHWVKQRPGQGLEWIGWIYPGSVNIKYNEKFKDKATLTADTSSTTAYMQLSSLSSEDSAIYYCARDISRYYFDYWGQGTTLTVSS
VL: DIVMSQSPSSLAVSAGERVTMNCKSSQSLLNSRTRKNYLAWYQQKPGQSPKLLIYWASTRESGVPDRFTGSGSGTDFTLTISSVQAEDLAVYYCKQSFILRTFGGGTKLAIK
notes: as for B1
[1]
  Kd: 12.1 nM
  koff: 0.00532 s⁻¹
  kon: 438000 M⁻¹ s⁻¹
CD3 on Jurkat cells [4]
  EC50 (read off the curve): ~0.1 nM

B4: CAb001 (antibody, V domains shown)
VH: QVQLQQSGPELVKPGASVKISCKASGYSFTNYYMHWVKQRPGQGLEWIGWTYPGNNNIKYNEKFKGKATLTADTSSSTAYMQLSSLTSEDSAVYYCARDGYGYYFFDYWGQGIILTVSS
VL: DIVMSQSPSSLAVSAGEKVTMSCKSSQSLLNNRTRKNYLAWYQQKPGQSPKLLIYWASTRESGVPDRFTGSGSGTDFTLTISSVQAEDLAIYYCKQSYTLRTFGGGTKLAIK
notes: as for B1
[1]
  Kd: 23.1 nM
  koff: 0.00616 s⁻¹
  kon: 267000 M⁻¹ s⁻¹
CD3 on Jurkat cells [5]
  EC50 (read off the curve): ~0.3 nM

B5: hAb001-27 (antibody, V domains shown)
VH: QVQLVQSGAEVKKPGASVKVSCKASGYSFTNYYMHWVRQAPGQRLEWIGWTYPGNNNIKYNEKFKGRATITADTSASTAYMELSSLRSEDTAVYYCARDGYGYYFFDYWGQGTLVTVSS
VL: DIVMTQSPDSLAVSLGERATMSCKSSQSLLNNRTRKNYLAWYQQKPGQPPKLLIYWASTRESGVPDRFSGSGSGTDFTLTISSLQAEDVAVYYCKQSYTLRTFGGGTKLEIK
notes: as for B2
[1]
  Kd: 21 nM
  koff: 0.00823 s⁻¹
  kon: 391000 M⁻¹ s⁻¹
CD3 on Jurkat cells [5]
  EC50 (read off the curve): ~0.3 nM

B6: hAb001-28 (antibody, V domains shown)
VH: QVQLVQSGAEVKKPGASVKVSCKASGYSFTNYYMHWVRQAPGQRLEWIGWTYPGNNNIKYNEKFKGRATITADTSASTAYMELSSLRSEDTAVYYCARDGYGYYFFDYWGQGTLVTVSS
VL: DIVMTQSPDSLAVSLGERATMSCKSSQSLLNNRTRKNYLAWYQQKPGQPPKLLIYWASTRESGVPDRFTGSGSGTDFTLTISSLQAEDVAVYYCKQSYTLRTFGGGTKLEIK
notes: as for B2
[1]
  Kd: 20.4 nM
  koff: 0.00745 s⁻¹
  kon: 365000 M⁻¹ s⁻¹
CD3 on Jurkat cells [5]
  EC50 (read off the curve): ~0.3 nM
